Measurements as given in the supplement of paper PMC10724198.
± gives the standard deviation of the averaged measurements.

What was measured:
Experiment in all cases: protein stability index of tFT-peptide fusion (C-terminal peptide) (PSI (0-1 scale)); higher = more stable (slower turnover)
[1] = system: Saccharomyces cerevisiae; conditions: temperature: 30 C
Method: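 MPS profiling in S. cerevisiae of the yeast C-terminome library: the last 12 aa of each annotated ORF are fused to the C-terminus of a sfGFP-mCherry timer, after a GGGS linker. Cells are FACS-sorted into 8 mCherry/sfGFP bins and deep-sequenced. PSI runs from 0 (unstable) to 1 (stable); wild type and das1Δ backgrounds, two technical replicates each.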

[2] = system: Saccharomyces cerevisiae
Method: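 MPS profiling in S. cerevisiae of the tFT-X12 degron library: putative degron peptides plus stable controls, 12 aa, fused to the C-terminus of a sfGFP-mCherry timer. Cells are FACS-sorted into 8 mCherry/sfGFP bins and deep-sequenced. PSI runs from 0 (unstable) to 1 (stable). Backgrounds are wild type, das1Δ and doa10Δ at 30 °C, and wild type, das1Δ, cdc34-1 and cdc53-1 at 37 °C; 2-3 technical replicates each.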

[3] = system: Saccharomyces cerevisiae; conditions: genetic background: wild type; temperature: 30 C
[4] = genetic background: das1 deletion
[5] = genetic background: cdc34-1, temperature: 37 C
[6] = genetic background: cdc53-1, temperature: 37 C
[7] = genetic background: das1 deletion, temperature: 30 C
[8] = genetic background: das1 deletion, temperature: 37 C
[9] = genetic background: doa10 deletion, temperature: 30 C
[10] = genetic background: wild type, temperature: 30 C
[11] = genetic background: wild type, temperature: 37 C

Sequence | protein stability index [1, 4] | protein stability index ([1]; genetic background: wild type) | protein stability index [2, 5] | protein stability index [2, 6] | protein stability index [2, 7] | protein stability index [2, 8] | protein stability index [2, 9] | protein stability index [2, 10] | protein stability index [2, 11] | protein stability index [3]
AAGVGSVHGINR [COY1 C-terminal 12 aa] | 0.7 ± 0.03 | 0.6645 ± 0.0066 |  |  |  |  |  |  |  | 
ILLHLEYAAAYS [STN1 C-terminal 12 aa] | 0.521 ± 0.033 | 0.552 ± 0.02 |  |  |  |  |  |  |  | 
AEIISVRQVDQS [GIT1 C-terminal 12 aa] | 0.673 ± 0.017 | 0.705 ± 0.051 |  |  |  |  |  |  |  | 
VFLRRFGVPWVF |  |  | 0.594 ± 0.016 | 0.664 ± 0.019 | 0.493 ± 0.029 | 0.661 ± 0.016 | 0.198 ± 0.0071 | 0.227 ± 0.02 | 0.429 ± 0.0074 | 0.365 ± 0.017
FMVYRIHSSAVM |  |  | 0.127 ± 0.017 | 0.172 ± 0.014 | 0.251 ± 0.06 | 0.149 ± 0.006 | 0.265 ± 0.028 | 0.257 ± 0.038 | 0.14 ± 0.014 | 0.158 ± 0.0045
YFFVCYFSLLVF |  |  | 0.0832 ± 0.019 | 0.139 ± 0.025 | 0.14 ± 0.032 | 0.231 ± 0.012 | 0.0967 ± 0.0036 | 0.119 ± 0.016 | 0.168 ± 0.03 | 0.177 ± 0.0081
PPGSPPGSLRPT |  |  | 0.67 ± 0.038 | 0.715 ± 0.027 | 0.664 ± 0.026 | 0.713 ± 0.013 | 0.662 ± 0.029 | 0.665 ± 0.036 | 0.703 ± 0.013 | 0.78 ± 0.025
LVSSYVPFFFAL |  |  | 0.6057 ± 0.0033 | 0.717 ± 0.046 | 0.664 ± 0.0071 | 0.752 ± 0.011 | 0.25 ± 0.0073 | 0.29 ± 0.031 | 0.388 ± 0.015 | 0.342 ± 0.011
LLSYMVSLVVYL |  |  | 0.127 ± 0.04 | 0.231 ± 0.03 | 0.175 ± 0.032 | 0.338 ± 0.024 | 0.16 ± 0.028 | 0.166 ± 0.031 | 0.291 ± 0.004 | 0.295 ± 0.0062
AFLWSLFVFFRF |  |  | 0.254 ± 0.056 | 0.183 ± 0.0084 | 0.31 ± 0.035 | 0.355 ± 0.0011 | 0.421 ± 0.017 | 0.269 ± 0.042 | 0.363 ± 0.018 | 0.393 ± 0.085
GPHATYLYLVLA |  |  | 0.199 ± 0.022 | 0.258 ± 0.022 | 0.226 ± 0.039 | 0.34 ± 0.0059 | 0.1579 ± 0.00054 | 0.177 ± 0.018 | 0.22866 ± 0.00017 | 0.2383 ± 0.00092
IPRSCRIRLAVL |  |  | 0.658 ± 0.03 | 0.715 ± 0.0073 | 0.562 ± 0.032 | 0.7175 ± 0.0055 | 0.254 ± 0.0096 | 0.271 ± 0.027 | 0.359 ± 0.021 | 0.359 ± 0.014
PFRSAYYLLFLL |  |  | 0.496 ± 0.048 | 0.6347 ± 0.0016 | 0.54 ± 0.013 | 0.6738 ± 0.00079 | 0.122 ± 0.015 | 0.118 ± 0.0092 | 0.161 ± 0.026 | 0.205 ± 0.035
SLVVMGSLWLRI |  |  | 0.275 ± 0.15 | 0.162 ± 0.093 | 0.346 ± 0.081 | 0.463 ± 0.024 | 0.468 ± 0.052 | 0.314 ± 0.077 | 0.425 ± 0.07 | 0.415 ± 0.0096
PPSPPLLFHFPP |  |  | 0.669 ± 0.049 | 0.756 ± 0.013 | 0.661 ± 0.0077 | 0.7367 ± 0.005 | 0.661 ± 0.022 | 0.658 ± 0.018 | 0.7058 ± 0.007 | 0.586 ± 0.15
WFIFTITSVAGL |  |  | 0.0307 ± 0.009 | 0.0301 ± 0.0014 | 0.0273 ± 0.0031 | 0.0442 ± 0.015 | 0.0226 ± 0.0015 | 0.0205 ± 0.0016 | 0.0325 ± 0.011 | 0.0312 ± 0.023
WLPFFPLSLRGV |  |  | 0.321 ± 0.012 | 0.317 ± 0.011 | 0.412 ± 0.027 | 0.5374 ± 0.0038 | 0.63 ± 0.0096 | 0.436 ± 0.048 | 0.5 ± 0.0093 | 0.497 ± 0.2
SVIVSSFFLWVF |  |  | 0.381 ± 0.051 | 0.454 ± 0.035 | 0.298 ± 0.03 | 0.482 ± 0.0072 | 0.2026 ± 0.00069 | 0.223 ± 0.029 | 0.426 ± 0.016 | 0.288 ± 0.019
PALLLFLRNLLL |  |  | 0.714 ± 0.022 | 0.7282 ± 0.0042 | 0.6419 ± 0.0029 | 0.757 ± 0.017 | 0.304 ± 0.018 | 0.352 ± 0.059 | 0.542 ± 0.009 | 0.447 ± 0.012
LDLPFESGIACF |  |  | 0.32 ± 0.035 | 0.297 ± 0.0081 | 0.259 ± 0.032 | 0.436 ± 0.027 | 0.209 ± 0.02 | 0.263 ± 0.029 | 0.397 ± 0.015 | 0.361 ± 0.0063

Sequence | protein stability index [1, 4] | protein stability index ([1]; genetic background: wild type) | protein stability index [2, 5] | protein stability index [2, 6] | protein stability index [2, 7] | protein stability index [2, 8] | protein stability index [2, 9] | protein stability index [2, 10] | protein stability index [2, 11] | protein stability index [3]
ALLWEFVPCSVR |  |  | 0.521 ± 0.032 | 0.52 ± 0.0073 | 0.354 ± 0.036 | 0.56 ± 0.0061 | 0.3287 ± 0.0015 | 0.375 ± 0.022 | 0.5347 ± 0.0023 | 0.453 ± 0.015
ICQFFFFALLSF |  |  | 0.109 ± 0.04 | 0.0674 ± 0.0054 | 0.164 ± 0.016 | 0.244 ± 0.021 | 0.238 ± 0.011 | 0.128 ± 0.018 | 0.19 ± 0.0063 | 0.178 ± 0.013
FGGFYGRRVLII |  |  | 0.62024 ± 0.00039 | 0.682 ± 0.0097 | 0.544 ± 0.023 | 0.6748 ± 0.0054 | 0.182 ± 0.0081 | 0.209 ± 0.0024 | 0.437 ± 0.0092 | 0.327 ± 0.04
SISVQCSMLRVL |  |  | 0.456 ± 0.036 | 0.47 ± 0.0037 | 0.389 ± 0.048 | 0.482 ± 0.0086 | 0.303 ± 0.02 | 0.294 ± 0.018 | 0.387 ± 0.038 | 0.331 ± 0.0089
LLRIFLPLLYLL |  |  | 0.203 ± 0.062 | 0.199 ± 0.011 | 0.329 ± 0.037 | 0.387 ± 0.016 | 0.218 ± 0.0076 | 0.131 ± 0.021 | 0.2 ± 0.00044 | 0.194 ± 0.019
PHFDLLLCLSLN |  |  | 0.625 ± 0.026 | 0.753 ± 0.057 | 0.676 ± 0.049 | 0.718 ± 0.018 | 0.248 ± 0.032 | 0.257 ± 0.033 | 0.521 ± 0.016 | 0.366 ± 0.0045
CRLRYSILWFRL |  |  | 0.104 ± 0.024 | 0.09746 ± 0.00035 | 0.245 ± 0.033 | 0.309 ± 0.032 | 0.201 ± 0.016 | 0.124 ± 0.017 | 0.155 ± 0.006 | 0.152 ± 0.017
VFLYVYAVWFLV |  |  | 0.156 ± 0.027 | 0.228 ± 0.0084 | 0.198 ± 0.042 | 0.321 ± 0.0075 | 0.1102 ± 0.00096 | 0.119 ± 0.053 | 0.118 ± 0.023 | 0.164 ± 0.025
PHLDLYRLSALI |  |  | 0.705 ± 0.01 | 0.751 ± 0.016 | 0.668 ± 0.032 | 0.79 ± 0.012 | 0.329 ± 0.031 | 0.366 ± 0.021 | 0.57 ± 0.021 | 0.47 ± 0.0056
AFLLVLFCCVSC |  |  | 0.241 ± 0.044 | 0.258 ± 0.0057 | 0.252 ± 0.023 | 0.3459 ± 0.0017 | 0.229 ± 0.0086 | 0.225 ± 0.023 | 0.303 ± 0.01 | 0.298 ± 0.018
IRLCAASFMVVF |  |  | 0.501 ± 0.025 | 0.55 ± 0.03 | 0.414 ± 0.023 | 0.5352 ± 0.0027 | 0.3904 ± 0.0034 | 0.405 ± 0.023 | 0.524 ± 0.014 | 0.474 ± 0.017
PFARIIDILLVI |  |  | 0.486 ± 0.022 | 0.5346 ± 0.0045 | 0.404 ± 0.042 | 0.5395 ± 0.00065 | 0.298 ± 0.0017 | 0.315 ± 0.022 | 0.495 ± 0.061 | 0.41 ± 0.026
LVFAFFLLSFFI |  |  | 0.478 ± 0.035 | 0.554 ± 0.015 | 0.478 ± 0.047 | 0.549 ± 0.00087 | 0.481 ± 0.025 | 0.466 ± 0.027 | 0.541 ± 0.02 | 0.425 ± 0.0078
QGPHISQYRTHR |  |  | 0.67 ± 0.022 | 0.7226 ± 0.0053 | 0.6413 ± 0.0052 | 0.745 ± 0.025 | 0.676 ± 0.0068 | 0.673 ± 0.014 | 0.728 ± 0.0094 | 0.706 ± 0.0037
LILLTFTLRVPV |  |  | 0.192 ± 0.0027 | 0.381 ± 0.046 | 0.233 ± 0.02 | 0.4028 ± 0.0024 | 0.2056 ± 0.001 | 0.227 ± 0.026 | 0.362 ± 0.018 | 0.361 ± 0.034
YARFWYSKAFIC |  |  | 0.455 ± 0.048 | 0.555 ± 0.011 | 0.581 ± 0.033 | 0.694 ± 0.025 | 0.12 ± 0.023 | 0.115 ± 0.012 | 0.169 ± 0.0034 | 0.2 ± 0.013
KKKKQKKNNNKR |  |  | 0.699 ± 0.094 | 0.687 ± 0.15 | 0.676 ± 0.083 | 0.755 ± 0.034 | 0.668 ± 0.011 | 0.6 ± 0.027 | 0.698 ± 0.079 | 0.536 ± 0.074
TGPLVHLLCCCV |  |  | 0.354 ± 0.011 | 0.417 ± 0.011 | 0.313 ± 0.028 | 0.3955 ± 0.0013 | 0.284 ± 0.0075 | 0.315 ± 0.019 | 0.386 ± 0.0074 | 0.421 ± 0.011
PPQDQAPVGVND |  |  | 0.672 ± 0.041 | 0.7509 ± 0.0024 | 0.619 ± 0.019 | 0.74 ± 0.0071 | 0.623 ± 0.03 | 0.644 ± 0.038 | 0.7007 ± 0.0022 | 0.474 ± 0.064
